In experiment [1] the target is ADCP1 (Agenet Domain Containing Protein 1) Agenet 1/2, 31-177 (UniProt Q500V5). The experiment in a line: ITC. The settings on record: reference: H3K9me2 peptide; sites S10.
The target in experiment [2] is ADCP1 (Agenet Domain Containing Protein 1) Agenet 3/4, 201-355 (UniProt Q500V5). The experiment in a line: ITC. The settings on record: reference: H3K9me2 peptide; sites S10.
Experiment [3] deals with ADCP1 (Agenet Domain Containing Protein 1) Agenet 5/6, 376-517 (UniProt Q500V5). The experiment in a line: ITC. The settings on record: reference: H3K9me2 peptide; sites S10.
For experiment [4], the target named is ADCP1 Agenet 1/2 domain (amino acids 31-177) (Arabidopsis thaliana) (UniProt Q500V5). Nature of the experiment: ITC; H3 peptides (usually 1 mM) titrated into ADCP1 tandem Agenet domains (0.05-0.1 mM); 25 °C; 100 mM NaCl, 20 mM Tris-HCl, pH 7.5; MicroCal PEAQ-ITC; 'One Set of Sites' fitting model.
Experiment [5] concerns the target ADCP1 Agenet 3/4 domain (amino acids 201-355) (Arabidopsis thaliana) (UniProt Q500V5). The experiment is described as above.
The test system of another experiment is ADCP1-H3K9me3 NA. The experiment in a line: Aurora B treatment of phase-separated ADCP1-H3K9me3 NA. The experiment is classed as biochemical. The settings on record: kinase 5 µM, ATP 50 µM, 30 °C, 5 h. The method, then:
(§1) Aurora B kinase, ATP (NEB, P0756S) and 10 × kinase buffer (CST, 9802S) were added to the nucleosome array. The final concentration of kinase was 5 µM and ATP was 50 µM. The mixture was incubated at 30 °C for 5 h. The reaction product was detected by the ph-H3S10 antibody (Abcam, ab5176).
(§2) ADCP1 Agenet domain 1-4 (1-355 aa) and Agenet 3-6 (201–517 aa) proteins were stored in 20 mM HepesNa, pH 7.4, 150 mM NaCl. A 1:1 molar ratio of Alex 488 (Invitrogen, A10254, dissolved in DMSO) was added into ADCP1 and the mixture was incubated at room temperature for 1 h. The excess dye was removed using MicroSpin G-50 column (GE Healthcare, 27533001). DAPI was added to native/K9me3/K9me3S10A 12× nucleosome array to label the DNA. Protein and nucleosome array were diluted to a proper concentration. Equal volume of nucleosome array and ADCP1 were mixed in a 384 well glass bottom plate (Cellvis, P384-1.5H-N). For Fig. 6a, the concentrations of three proteins were 30 μM. […] The sample volume in each well was 5–10 μL. After 1 h incubation at room temperature, images were captured by Nikon A1RMP confocal microscope with 100 × oil objective. For FRAP analysis, mean fluorescence intensities from five regions of interests (ROIs) of time-lapse images were computed. ROI-1 was the bleached droplet, ROI-2 was a non-bleached droplet, ROI-3 was a background region. NIS-element software was used for data analysis.

Experiment [6] deals with H3(S10A)K9me3 NA with ADCP1. Nature of the experiment: Aurora B treatment of phase-separated ADCP1-H3(S10A)K9me3 NA. Type of experiment: biochemical. The note with it: kinase 5 µM, ATP 50 µM, 30 °C, 5 h. As to the method:
as §1, §2

Experiment [7] has as its target T1, ADCP1 Agenet 1/2 domain (amino acids 31-177) (Arabidopsis, UniProt Q500V5 31-177).
T1 chain: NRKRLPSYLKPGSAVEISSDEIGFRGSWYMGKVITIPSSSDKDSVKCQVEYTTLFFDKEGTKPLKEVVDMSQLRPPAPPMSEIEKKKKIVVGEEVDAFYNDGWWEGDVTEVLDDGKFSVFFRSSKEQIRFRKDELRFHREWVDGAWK
The experiment in a line: ITC. For orientation: ITC needs no label: the signal is the heat of the interaction.

Consider 6 molecules from paper PMC6318295, “Plant HP1 protein ADCP1 links multivalent H3K9 methylation readout to heterochromatin formation” (Cell Research, 2018).

ADCP1 Agenet 3/4 domain (amino acids 201-355) (Arabidopsis thaliana), sequence (Q500V5 201-355): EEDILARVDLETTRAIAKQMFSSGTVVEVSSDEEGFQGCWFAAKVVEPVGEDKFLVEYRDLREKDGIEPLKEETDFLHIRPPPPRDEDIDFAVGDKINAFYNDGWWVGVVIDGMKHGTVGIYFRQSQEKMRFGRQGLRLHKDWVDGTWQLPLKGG

Turning to “histone H3 (synthetic H3 peptides) 1-15 (from UniProt P59226) H3K9me2S10ph peptide”, the “binding against the reference” value in experiment [1], in experiment [2] and in experiment [3] was “weaker” each time.
H3(1-15)K4me3 peptide: the Ka came to 19000 M⁻¹ in experiment [4] and 24000 M⁻¹ in experiment [5]. Also, the stoichiometry N is 1.12 in experiment [4] and 0.971 in experiment [5].
Take H3(1-15)K9me2S10ph peptide: in experiment [5], the Ka is 10000 M⁻¹ and the stoichiometry N amounted to 1.
In experiment [4], H3(1-15)K9me2 peptide returned a Ka of 333000 M⁻¹ and a stoichiometry N of 1.01.

B1: Aurora B: human Aurora B kinase, causes S10 phosphorylation (protein, UniProt Q96GD4 1-344, looked up)
Aurora kinase B: MAQKENSYPWPYGRQTAPSGLSTLPQRVLRKEPVTPSALVLMSRSNVQPTAAPGQKVMENSSGTPDILTRHFTIDDFEIGRPLGKGKFGNVYLAREKKSHFIVALKVLFKSQIEKEGVEHQLRREIEIQAHLHHPNILRLYNYFYDRRRIYLILEYAPRGELYKELQKSCTFDEQRTATIMEELADALMYCHGKKVIHRDIKPENLLLGLKGELKIADFGWSVHAPSLRRKTMCGTLDYLPPEMIEGRMHNEKVDLWCIGVLCYELLVGNPPFESASHNETYRRIVKVDLKFPASVPMGAQDLISKLLRHNPSERLPLAQVSAHPWVRANSRRVLPPSALQSVA
As to B1, the “dissolution of phase transition by Aurora B, H3K9me3 NA” value in the experiment on ADCP1-H3K9me3 NA is “phase transition of the former but not the latter can be dissolved by Aurora B treatment”. Also, the “dissolution of phase transition by Aurora B, H3(S10A)K9me3 NA” value in experiment [6] is on record as “not the latter can be dissolved by Aurora B treatment”.

B2: H3K9me3S10ph (peptide)
chain: ARTKQTARKSTGGKA
modifications: trimethyl-Lys9, phospho-Ser10 (mature H3 numbering; precursor 10 and 11). Taken as the ITC peptide of Fig. 1e with limits 1-15 from the paper's other H3K9me peptides; the text uses the same name for the Aurora B-treated MLA nucleosome array, which is a different molecule
With B2, the Kd in experiment [7] was found to be 42.5 µM. This lies in the double-digit micromolar range.

The term stoichiometry N denotes a count of units in the complex or per binding partner. As usually defined, the Kd is the concentration at which binding is half-saturated.
